Experimental data: article PMC6754870 (2019)

Legend:
VEGFR1 = target: T1, VEGFR1 (Rattus norvegicus, UniProt P53767); test: [125I]-VEGF-A saturation binding to isolated LSECs at 4°C, Scatchard
T1 chain: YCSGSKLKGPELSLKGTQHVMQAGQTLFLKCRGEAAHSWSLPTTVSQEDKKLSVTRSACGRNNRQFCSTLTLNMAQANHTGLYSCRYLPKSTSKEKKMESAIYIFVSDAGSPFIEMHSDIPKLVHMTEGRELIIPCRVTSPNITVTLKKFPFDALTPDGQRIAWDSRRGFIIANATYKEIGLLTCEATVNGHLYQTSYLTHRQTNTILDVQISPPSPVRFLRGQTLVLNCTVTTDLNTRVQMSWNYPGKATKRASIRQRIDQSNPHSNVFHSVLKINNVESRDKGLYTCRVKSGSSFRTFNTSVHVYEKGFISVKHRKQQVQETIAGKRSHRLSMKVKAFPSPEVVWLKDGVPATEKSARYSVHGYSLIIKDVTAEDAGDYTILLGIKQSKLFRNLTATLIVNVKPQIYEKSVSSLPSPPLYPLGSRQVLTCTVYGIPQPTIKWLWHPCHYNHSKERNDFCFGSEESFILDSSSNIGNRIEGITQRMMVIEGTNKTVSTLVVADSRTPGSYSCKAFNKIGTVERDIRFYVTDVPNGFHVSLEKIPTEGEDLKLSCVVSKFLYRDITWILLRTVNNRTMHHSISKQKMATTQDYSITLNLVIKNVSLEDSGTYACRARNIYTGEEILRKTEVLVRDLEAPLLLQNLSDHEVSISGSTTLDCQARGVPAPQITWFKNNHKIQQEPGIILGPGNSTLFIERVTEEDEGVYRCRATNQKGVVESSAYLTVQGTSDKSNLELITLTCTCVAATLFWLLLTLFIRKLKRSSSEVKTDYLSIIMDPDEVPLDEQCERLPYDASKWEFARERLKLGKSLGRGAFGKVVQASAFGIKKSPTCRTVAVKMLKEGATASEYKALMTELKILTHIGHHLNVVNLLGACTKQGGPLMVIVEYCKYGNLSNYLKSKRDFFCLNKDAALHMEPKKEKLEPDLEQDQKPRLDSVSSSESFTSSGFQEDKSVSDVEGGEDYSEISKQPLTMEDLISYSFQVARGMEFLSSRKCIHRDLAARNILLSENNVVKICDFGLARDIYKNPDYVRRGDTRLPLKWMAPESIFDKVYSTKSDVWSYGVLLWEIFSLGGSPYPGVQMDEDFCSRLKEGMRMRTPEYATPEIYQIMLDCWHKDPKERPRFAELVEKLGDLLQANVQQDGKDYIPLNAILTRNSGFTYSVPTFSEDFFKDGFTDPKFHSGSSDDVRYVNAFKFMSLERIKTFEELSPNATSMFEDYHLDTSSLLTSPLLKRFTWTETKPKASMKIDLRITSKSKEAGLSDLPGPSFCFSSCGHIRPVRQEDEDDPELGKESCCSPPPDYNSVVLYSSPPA

VEGFR2 = target: T2, VEGFR2 (Rattus norvegicus, UniProt O08775); test: as above
T2 chain: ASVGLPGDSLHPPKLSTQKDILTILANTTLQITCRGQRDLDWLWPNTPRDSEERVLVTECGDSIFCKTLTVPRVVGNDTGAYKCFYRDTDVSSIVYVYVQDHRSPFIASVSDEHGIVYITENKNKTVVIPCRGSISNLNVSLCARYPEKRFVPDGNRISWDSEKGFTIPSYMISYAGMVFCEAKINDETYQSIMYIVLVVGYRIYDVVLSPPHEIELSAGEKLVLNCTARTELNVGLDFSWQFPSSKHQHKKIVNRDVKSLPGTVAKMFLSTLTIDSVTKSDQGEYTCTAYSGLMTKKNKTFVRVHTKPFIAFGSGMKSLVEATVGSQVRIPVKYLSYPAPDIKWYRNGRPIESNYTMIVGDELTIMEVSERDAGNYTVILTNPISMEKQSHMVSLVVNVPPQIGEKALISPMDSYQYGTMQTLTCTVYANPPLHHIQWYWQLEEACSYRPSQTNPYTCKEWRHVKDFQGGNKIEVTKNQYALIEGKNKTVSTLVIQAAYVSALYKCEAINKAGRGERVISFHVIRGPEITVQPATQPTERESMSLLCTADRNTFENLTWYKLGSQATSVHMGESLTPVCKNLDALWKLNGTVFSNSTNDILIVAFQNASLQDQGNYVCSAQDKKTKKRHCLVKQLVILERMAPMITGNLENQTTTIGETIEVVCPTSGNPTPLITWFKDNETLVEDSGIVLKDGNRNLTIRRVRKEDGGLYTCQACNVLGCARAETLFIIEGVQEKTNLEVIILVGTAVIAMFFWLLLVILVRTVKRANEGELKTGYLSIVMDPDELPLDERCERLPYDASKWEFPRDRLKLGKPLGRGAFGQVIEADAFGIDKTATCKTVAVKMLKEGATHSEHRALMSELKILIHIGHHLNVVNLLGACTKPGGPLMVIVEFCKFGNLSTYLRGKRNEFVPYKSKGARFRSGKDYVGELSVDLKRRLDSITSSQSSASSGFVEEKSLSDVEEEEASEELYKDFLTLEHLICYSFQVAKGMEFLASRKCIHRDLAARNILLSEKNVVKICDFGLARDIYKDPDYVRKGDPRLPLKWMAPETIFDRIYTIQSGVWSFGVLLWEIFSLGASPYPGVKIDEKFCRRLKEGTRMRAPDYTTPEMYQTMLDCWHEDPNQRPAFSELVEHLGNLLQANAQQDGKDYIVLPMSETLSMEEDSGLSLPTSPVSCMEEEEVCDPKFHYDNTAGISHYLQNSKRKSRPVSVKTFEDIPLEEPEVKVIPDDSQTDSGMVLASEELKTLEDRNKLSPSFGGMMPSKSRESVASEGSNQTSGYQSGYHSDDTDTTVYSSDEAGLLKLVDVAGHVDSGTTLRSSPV

B1: VEGF-A165 (protein)
chain: MTDRQTDTAPSPSYHLLPGRRRTVDAAASRGQGPEPAPGGGVEGVGARGVALKLFVQLLGCSRFGGAVVRAGEAEPSGAARSASSGREEPQPEEGEEEEEKEEERGPQWRLGARKPGSWTGEAAVCADSAPAARAPQALARASGRGGRVARRGAEESGPPHSPSRRGSASRAGPGRASETMNFLLSWVHWSLALLLYLHHAKWSQAAPMAEGGGQNHHEVVKFMDVYQRSYCHPIETLVDIFQEYPDEIEYIFKPSCVPLMRCGGCCNDEGLECVPTEESNITMQIMRIKPHQGQHIGEMSFLQHNKCECRPKKDRARQEKKSVRGKGKGQKRKRKKSRYKSWSVPCGPCSERRKHLFVQDPQTCKCSCKNTDSRCKARQLELNERTCRCDKPRR
modifications: 125I-labeled VEGF-A
In the case of B1, the Kd (VEGFR1) is reported as 0.008 nM and the Kd (VEGFR2) is reported as 0.21 nM.
